The DeepSol protein solubility set

Experiment: soluble on expression in E. coli; label from the status in PepcDB or PDB records

Soluble on expression in E. coli, soluble:
MFITFEGIDGSGKSTQIQLLAQYLEKRGKKVILKREPGGTETGEKIRKILLEEEVTPKAELFLFLASRNLLVTEIKQYLSEGYAVLLDRYTDSSVAYQGFGRNLGKEIVEELNDFATDGLIPDLTFYIDVDVETALKRKGELNRFEKREFLERVREGYLVLAREHPERIVVLDGKRSIEEIHRDVVREVKRRWKLDV
MSLCRRRLATWLLDGSQPPTLLLPEQEGINGIRFPIWLDENGKRVAADCPQARQEMINVWPLPLEPWLPASERRAVRLPPASTSCPPYGHDAQLPLQLTGVRDGAIIKRLPGAAEATLPLQSSGGAGERWWFLNGEPLTERGRNVTLHLTDKGDYQLLVMDDVGQIATVKFVMQEGHHHHHH
MQQVIPAPRVQVTQPYAGQKPGTSGLRKKVSEATQPNYLENFVQSIFNTLRKDELKPKNVLFVGGDGRYFNRQAIFSIIRLAYANDISEVHVGQAGLMSTPASSHYIRKVNEEVGNCIGGIILTASHNPGGKEHGDFGIKFNVRTGAPAPEDFTDQIYTHTTKIKEYLTVDYEFEKHINLDQIGVYKFEGTRLEKSHFEVKVVDTVQDYTQLMQKLFDFDLLKGLFSNKDFSFRFDGMHGVAGPYAKHIFGTLLGCSKESLLNCDPSEDFGGGHPDPNLTYAHDLVELLDIHKKKDVGTVPQFGAACDGDADRNMILGRQFFVTPSDSLAVIAANANLIFKNGLLGAARSMPTSGALDKVAAKNGIKLFETPTGWKFFGNLMDAGLINLCGEESFGTGSNHIREKDGIWAVLAWLTILAHKNKNTDHFVTVEEIVTQYWQQFGRNYYSRYDYEQVDSAGANKMMEHLKTKFQYFEQLKQGNKADIYDYVDPVDQSVSKNQGVRFVFGDGSRIIFRLSGTGSVGATIRIYFEQFEQQQIQHETATALANIIKLGLEISDIAQFTGRNEPTVIT
MALFSPYALGATLYMPATRDDIVDVVFGEKIPELRSLVVCLEDAVALIDVDTALLNLRQVLTRIHDRGGRPANGPLLFVRPRDAAMARILNDWPLMAHVDGFVVPKLSLKSLTSWEEAVTNPALALMPTLETPEVFNPTAMVELGQALKASLHERIIALRIGGNDLMGCLGLRRNPAMTLYSTPMGYVIPMLAGVMGAQGFALTAPVFEQLATPDILEQELALDITNGLVGKTAIHPSQVNIIQNALRVSLEDMNSARMILNSVAPAVFKYNDAMCEPATHYKWATHIMERAKWHGVLPTPASIMDASIRLAEAVSLEHHHHHH
MSLSELARRLNQCKKPVGDQGKVVVDDMNERHYELTGWGLDKIKIDKAYKMLDIGCGGGRTVNRLSKAAEEGEVYGIDYSSDCVRWASEYNKELIKEGRVHISEASVEKLPFEDNKFDVVTAVETIYFWPNVEENIKEVNRVLKKGGKFIIINEIYDDDKFRERNNEFAKNSNMKIYSPEKLKSLLKNAGYLNVEMEIKEENNWICYVSEKEGHHHHHH
MVGGGGVKFIEMDIRDKEAYELAKEWFDEVVVSIKFNEEVDKEKLREARKEYGKVAILLSNPKPSLVRDTVQKFKSYLIYVESNDLRVIRYSIEKGVDAIISPWVNRKDPGIDHVLAKLMVKKNVALGFSLRPLLYSNPYERANLLRFMMKAWKLVEKYKVRRFLTSSAQEKWDVRYPRDLISLGVVIGMEIPQAKASISMYPEIILKRLKY
MSLQRKRIVRERVVYVLDYMREGNPLDKHKFHRDKPLIQAVGEDYFLLLELTPLSYNLDFLPEDKIELDSNSSVKVDAHISYEDLTSVSRDNLPKILYKIVFEKEKVFVEIFNKAEPLTLRLHALELLPNIGKKTLRIILEERKKKPFESFKDIESRIGVKDVASILVERIIKEMQGGEKYYLFVYPLIPDENKRLEQQFIYVGYIEKLKEGHHHHHH
MGFKQDIATIRGDLRTYAQDIFLAFLNKYPDERRYFKNYVGKSDQELKSMAKFGDHTEKVFNLMMEVADRATDSVPLASDANTLVQMKQHSSLTTGNFEKLFVALVEYMRASGQSFDSQSWDRFGKNLVSALSSAGMK

Soluble on expression in E. coli, not soluble:
SLNAFDELVFAPMYVTSVDGRQAGVFHAHKGRRLIAAHRKAGTTPFVGASRVNNSITGFADTPALFPGGWITLIYNGDGGTGHAKYQPAPFNASDDVIALEPISKQATEPALLLIASMLTLQCVPKFGFGYKLTLHRLDRQKIMIPVLTNADGEQVVNWSGLTRHGKRLLNEAKTRARAVRELTSTAKPKLPELNYMPMFITDVFESMNAAGKWFDFAKACLSGKPFAPYIARSGGGNGVGSFVPHQGFAPPNAGNAITIGVSTSTVFYQPVPFYTSKEIQVLRHHKLTADSGLILVALLREQMGKFQWGNGASLERLKATRIMVPAMVGADGEDVVDWDGLSRYGRALRARVELAINAVL
MGHHHHHHSHDNLSVPLMEEDLDGSSGVLFPFYDADTSMLYVVGKGDGNIRYYEVSADKPHLSYLTEYRSYNPQKGIGVMPKRGLDVSSCEIFRFYKLITTKSLIEPISMIVPRRSESYQEDIYPPTAGAQPSLTAQEWLSGMNRDPILVSLRPGSELLRPHPLPAERPIFNSMAPASPRLLNQTEKLAAEDGWRSS
MNKLYIDSFVEKKLTAGVQLLDEKDFSNIKEKNQLVQLVTKSNRPIGTAYISKQNKGIGWYLGPEKIDLSISYFVSLFSVAKAKRQDFAQSDETNAYRLFNQEGDGFGGVTIDLYKDFAVFSWYNAFVYDKKEMIMEAFQQVFPEVKGAYEKCRFKGPDTETAHLYGELAQETFSILENGIAYQVFLNEGLMTGIFLDQHDVRRALVDGLAMGKSLLNLFSYTAAFSVAAAMGGAIETTSVDLAKRSRELSLAHFEHNQLNLASHHFVVMDVFEYFKYAKRKKLIFDVIVIDPPSFARNKKQTFSVSRDYHKLITEALDILSPKGTIIASTNAANMTVSQFKKQIIKGFGSRRPESMTLQQLPSDFTINKADERSNYLKVFTIKVRE
MGSDKIHHHHHHMQMENSVTTRSRSPDAVRDSAVDRNAYQAKIDPHALKFQIFQEVLTIKREFKCCGGGCCGCLACIGCCQQECIIETPSMGVLGIIRQRCGCMSSNYDIMDGDGNVIFQIDGPCCCMLCGCQDKEFPIKTANNGTVVGAITKKWGGCFREAFTDADTFAVNFPGDLDVKLKGVLIGATFLIDFMEFEQQSQNRNNGV
MPLTGEYEPSPSKWAADQAELMESTDGAKGTTLGGRPVVLLTTRGAKSGKIRKTPLMRVEHDGTYAIVASLGGAPKNPVWYYNVKAEPHVELRDGSATQDMVAREVTGDERATWWDRAVAAFPDYAEYQKKTDREIPVFVLEPA
AHHHHHHGSGRDKKNTALLDIARDIGGDEAVEVVKALEKKGEATDEELAELTGVRVNTVRKILYALYDAKLATFRRVRDDETGWYYYYWRIDTKRLPEVIRTRKLQELEKLKQMLQEETSETYYHCGTPGHPKLTFDEAFEYGFQCPICGEILYEYDNSKIIEELKKRIEELEIELGLRSPPKEEKPKKATRRKKSRSGKKKK
MGSDKIHHHHHHMKIRVDIIGLKGGVGKTTIALNTALYLSKRYKVLYIDKDLLSMGSLILGFNGLGFNKAIVEGLGNEQYEYKVNNNLTLFKLYSDPVNERELQHKVKGMGEKAERAYVDVVSKGYDVIIVDYGRIFRTNDPLVYDEYEMFKKNFPDYTIAAAGITDAIRNDVTDVVKYFLDTINRIKAKPLAFVINMVPQIGDIQKEINQIVREISEVVKCDILTIPFNEKLVQYANMGEVEEMQKVGKLIERILSNG
MAHHHHHHMFSFYIYRKKTISWDEVTINEQDKERGSRMKILEPNTPFNFILMDSASEDEASKYGDVKGSDEGQNNIADDLINKLNQLVEKQENKGVSNIDFKEKRKKHYNEYKMLQKLRKSGTLDDIDEEYKPDNKDSNCDNSVSQEFPCYIARNFVVISL
MGSDKIHHHHHHMTTVLEKFEKLKTEHAPGQEVRQKTPAFEELLIGEKLEGRTVDFSHGDVDAFLPTPGAFEEFSDGVHSGGKQAYTVYRGLADLREILSVRLTSFTGAPVNAADNLIITPGTQGALFLSVAATVAAGDKVAIVQPDYFANRKLVEFFEAEMLPVQLDYLGTDKAAGLDLNQLEAAFRDGARVFVFSNPNNPTGAVYSTEEIDAIAALADRYGAMVIVDQLYSRLLYEGTEYQHLRAVGGTGRDNVITIMGPSKTESLSGYRLGVAFGPSSVIERMERLQAIVSLRAAGYNQAVLQTWFSEPDGWMSERIKLHQAIRDDLLTRFRARADVAVRTPQAGSYMFAKLPRLRVSPIDFVKILRHQATVIVTPGSEFSPHTASSIRLNFSQNHAAATGAVERLVTLIERYREARP
MAKRGRPCGFDREQALRRALDVFWEAGYEGVTMAALKEAMGGICAPSMYAAYGSKEALFRSAVELYLSQECQLSKGAFALPTARESIAALLESAAVSYTTEGKPRGCLVDLSTTNFSPANKGVEDYLRDHRRRAARLLRERFARGVADGDVPAGADLDALTSFYSSVLQGLSIQARDGASRQQLLAIGRCAMAAWDSLLAVEAA
MKLDKYTVGKRYGKALFELAVEKNQAEAIYQELLTLREVYHQVPGIGDILSDDRLEPYEKDSIMEKLVTGFSEMMQNFLRVVYEYRRMYDLLLMIDEYERRYDEHQGLILGSVTTAIPLSKEQHQAMEEKAAQLLGYEQAHLVNLIDPSIVGGVVIEANHQVIDGSIRKQLEHMQQKLLK
MGSDKIHHHHHHMTRLAIVRQKYNPAGGAERFVSRALAALRDKGELEVSLIARRWEPVEGVKAYQVDGPYLGNVWRDWSFARKARRIWLREGFDLVQSHERIPGCDVYRAGDGVHRRWLQLRRQGMSAWGRFVLWCNPYHHYIQRAESEMFHHPRLKRVICNSQMVKREIQQYFGLSDQQIVVIYNGVDLQSFHPGLRSEHRQAMRSQWGVPGDAPLLLYVGSGFERKGVARALKALQANPGAWLMVVGGDKRLARYRRLADELGVDARVVFAGAQGEVRPFYGMADAFILPTLYDPFPNVCVEALASGLPVLTTRQCGAAEFVRQGENGWVCDAFDEEALARSVAEWLSVSRNWPVLAEAARRSVEGLSLGAMAERMLNCYRDLLSVSAVA
RQTDFTRPDGSRSTVALLQGNIDQTLKWREDQVIPTIQKYYEQVGKTTADIVILPETAIPVMRQNLPENILAKFAEQAQNNGSALAVGISQYTSDGNGYENAVINLTGYQENNQDGIPYYAKNHLVPFGEYKPLPFLTTPLYKMMDMPLSDFRKGGGKQSALLMKNQKIAFNICYEDGFGDELIAAAKDATLLANASNMAWYGKSNAMYQHLQQSQARAMELGRYMVRATNTGATAIISPKGNIIAQAQPDTETVLEGHIKGYVGETPYMKTG
MGSDKIHHHHHHMLMGSKDKVISILKEKGPISQTELSKLSGLSKSRLSEVLSELEKQGIVKRRKVLGKNLEVSLSQDRFLRLGIIRAAEYPFIIPFIKNLENRGYSVTVKIYENGIDLTRDLVEAKLDLGLSPIITQIIFSTIYRNIRIIGGGAKGGGGIIGKTCNRIASTVMSSMEIWAFSEFKNIEIIPSYSSYEMLDFLEKGIVDGIAIWEPFLSILERKGHKVHRFTPLHCCTLAVRETMDWERIKNIYEESFSWFKSSIDRWVSSYSNLLNIDYNILKEASKNYEFDYYLDLKEFKNSLKNTGIFIPI
MGHHHHHHSHDTISHQLEWRSLKSQETTGAGEDVEKQEQLLHCWWDCKLVQPLRKSVWQFLRNLELEIPFDPAIPLLGRYPKDYKSCCYKDTCTRMFIAALFTIAKTWNQPKCPTTIDWIKKMWHIYTMEYYAAIKNDEFMSFVGTWMKLETIILSKLSQGQ
